The text below walks through data of patent US20050234221A1 (Amgen, published 2005).

For the test, the target named is T1, IL-17RB-3-Fc fusion protein (human).
T1 construct: Used as 5x concentrated conditioned medium; also called huIL-17RB-3 like-Fc; HIL17RB-3-Fc
As to the kind of experiment: restates the competition assay of Example 8. Here is the method: The conditioned media from 293E cells transfected to express IL-17E-Fc fusion protein (SEQ ID NO: 23), prepared as described in Example 7 above, was collected, concentrated and used for the binding assay. Specificity of ligand binding was determined by competition with soluble blocking receptors, either IL-17RB-2-Fc or IL-17RB-3-Fc fusion proteins (SEQ ID NOS: 22 or 23, respectively). IL-17R-Fc fusion protein (consisting of the extracellular domain of SEQ ID NO: 3) was purified from conditioned media collected from transfected 293E cells and used as a control. Conditioned media from 293E cells transfected with IL-17RB-2-Fc or IL-17-RB-3-Fc (deposited with the ATCC on Mar. 14, 2001 under Accession Nos. and respectively), as described in Example 6 above, was concentrated (5×) with an Amicon 3Kd cut-off Centracon (#4203) and used for blocking.
Prior to the binding assay, 0.5 ml of IL-17E-Fc fusion protein containing (1×) conditioned media was added into vials each containing 0.5 ml 5× conditioned media of IL-17RB-2-Fc, IL-17RB-3-Fc, or 0.5 ml of 5 μg/ml IL-17R-Fc protein in RPMI 1640. Each vial was incubated on ice for 2 hours.
Subsequently, GM3104A cells (1×10⁶ cells per sample) were incubated with 1 ml of 8% FBS/PBS, at 4° C. for 1 hour. […]

B1: recombinant human IL-17E-Fc fusion protein (Fc fusion)
chain: YSHWPSCCPSKGQDTSEELLRWSTVPVPPLEPARPNRHPESCRASEDGPLNSRAISPWRYELDRDLNRLPQDLYHARCLCPHCVSLQTGSHMDPRGNSELLYHNQTVFYRRPCHGEKGTHKGYCLERRLYRVSLACVCVRPRVMGEPKSADKTHTCPPCPAPELLGGPSVFLFPPKPKDTLMISRTPEVTCVVVDVSHEDPEVKFNWYVDGVEVHNAKTKPREEQYNSTYRVVSVLTVLHQDWLNGKEYKCKVSNKALPAPIEKTISKAKGQPREPQVYTLPPSRDELTKNQVSLTCLVKGFYPSDDIAVEWESNGQPENNYKTTPPVLDSDGSFFLYSKLTVDKSRWQQGNVFSCSVMHEALHNHYTQKSLSLSPGK
notes: Used as conditioned medium of transfected 293E cells; also called IL-17 like-Fc; rhIL-17 like-Fc
Consider B1, for which the binding result is “binds”.
